Measurements published in patent publication US20100221240A1, “Chemically Modified Peptide Analogs” (FRAUNHOFER-GESELLSCHAFT ZUR FORDERUNG DER ANGEWANDTEN …, priority 2004, published 2010).

Key:
[1] = Nyholm B. et al. 2001; cited from earlier work
[2] = Sedimentation test (solubility; BCA protein determination of pellet and supernatant); assay type: physicochemical; conditions: pH 7.4
Procedure: a) The sedimentation test was used to investigate the solubility of the analogs compared to IAPP. The quantity of precipitated or soluble peptide was determined as a function of time. In one typical experiment, first a peptide solution at a given concentration (1, 10, or 100 μM) in 10 mM sodium phosphate buffer, pH 7.4 was prepared. Aliquots of this solution were centrifuged at specified times (20200 g, 20 min), and precipitated protein in the pellet and supernatant was quantified using the bicinchonic acid (BCA) protein determination assay. FIG. 1 illustrates several results from this test. […] After 20 h IAPP was completely precipitated; in contrast, the N-methylated IAPP-LA [sic; IAPP-AL], IAPP-GI, and IAPP-AF [sic; IAPP-FA] analogs remained soluble over 14 days, even at a concentration of 100 μM. IAPP completely precipitated after only 2 h under the latter-referenced conditions (100 μM).

[3] = ThT binding assay of the fibrile formation potential of the peptides alone; assay type: physicochemical; conditions: 2% HFIP, 10 mM tris, pH 7.4
Procedure: b) Amyloid fibriles from various protein species bind to the dye ThT and result in an increase in the maximum fluorescence emission of the […]. The ThT binding is therefore a specific test widely used for quantifying amyloid fibriles. This test was used to determine the amyloid formation potential of the analogs compared to IAPP. For this test the analogs and IAPP were incubated at a concentration of 62.5 μm [sic; μM] (2% HFIP, 10 mM tris, pH 7.4). […] aliquots from these incubations were combined with […] of a 5 μM ThT solution (in 0.1 M glycine-NaOH buffer, pH 8.5), mixed, and after excitation at 450 nm the emission from the solution was determined at 485 nm. It was shown that IAPP forms fibriles at a concentration of 625 nM.

[4] = EM analysis of peptide solutions for fibriles; assay type: physicochemical; conditions: 5 μM, 10 mM sodium phosphate buffer pH 7.4, 1% HFIP, approximately 20 h at RT
Procedure: c) For EM analyses, 5-μM solutions of the analogs versus IAPP (in 10 mM sodium phosphate buffer, pH 7.4, containing 1% HFIP) were incubated for approximately 20 h at RT. 10 μL of the solutions was then applied to EM plates, and after dyeing with 1% uranyl acetate as described in Kayed, J. Mol. Biol. (1999) 287, 781-796 was analyzed for the presence of fibriles by means of EM.

IAPP = biological target: T1, IAPP (Homo sapiens, UniProt P10997); assay: EM-tracked aggregation test of IAPP in 1:1 mixture with analogs; assay type: biochemical; conditions: IAPP 5 μM alone or 1:1 with analog, 10 mM sodium phosphate pH 7.4, 1% HFIP, 20 h
T1 construct: Natural human IAPP
T1 sequence (P10997 34-70 limits assumed): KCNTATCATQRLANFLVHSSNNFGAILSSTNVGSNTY
Procedure: In one typical aggregation test tracked by EM, IAPP (5 μM) was incubated alone or in the presence of one of the analogs, in a 1:1 ratio (in 10 mM sodium phosphate buffer, pH 7.4, containing 1% HFIP). After 20 h, 10 μL of the solution was applied to an EM plate, and after dyeing with 1% uranyl acetate as described in Kayed, J. Mol. Biol. (1999) 287, 781-796 was analyzed for the presence of fibriles by means of EM.

[5] = biological target: T2, IAPP receptor on MCF-7 cells (Homo sapiens, UniProt P30988); assay: Stability in solution: preservation of AC activation potential (hormonal activity) on storage; assay type: cell-based; conditions: 250 μM or 1 mg/mL, sodium phosphate pH 7.4, RT, 4 days; 1 μM end concentration on cells
T2 construct: Specific IAPP receptors are expressed in the MCF-7 cell line; endogenous in cells; host or cells: MCF-7 (human breast cancer cells)
T2 sequence (P30988 25-474): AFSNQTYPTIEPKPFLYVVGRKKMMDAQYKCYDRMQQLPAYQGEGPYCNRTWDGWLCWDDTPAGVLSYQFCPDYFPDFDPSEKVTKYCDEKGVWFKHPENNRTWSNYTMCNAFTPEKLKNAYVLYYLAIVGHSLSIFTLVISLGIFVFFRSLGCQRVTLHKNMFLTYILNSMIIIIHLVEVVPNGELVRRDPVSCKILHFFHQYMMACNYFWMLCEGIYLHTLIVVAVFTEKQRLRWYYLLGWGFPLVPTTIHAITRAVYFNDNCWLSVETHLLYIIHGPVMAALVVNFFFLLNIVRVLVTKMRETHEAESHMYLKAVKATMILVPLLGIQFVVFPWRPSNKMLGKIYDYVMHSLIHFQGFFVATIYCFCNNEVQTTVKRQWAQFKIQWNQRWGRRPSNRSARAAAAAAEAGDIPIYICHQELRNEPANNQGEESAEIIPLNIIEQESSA
Procedure: To [determine] the potential applicability of the analogs as an IAPP or pramlintide replacement in the treatment of diabetes and/or other diseases, the stability of the solutions of the analogs and thus their hormonal activity in comparison to readily aggregating IAPP was investigated. In one typical assay, aqueous solutions of IAPP, IAPP-AL, IAPP-GI, or 1:1 mixtures of the analogs with IAPP (250 μM or 1 mg/mL) in […] sodium phosphate, pH 7.4, were used at RT and incubated for 4 days. The AC activation potential of these solutions was determined at various times, e.g., at times 0, 48 h, and 96 h, by means of the AC activation assay described above (end concentration in the cells was 1 μM, corresponding to maximum activation) (FIG. 9).

[6] = 10 μM in 10 mM sodium phosphate buffer

Compound | pH values at which the peptide tends to aggregate [1] | onset of aggregation [2, 6] | time after which peptide was completely precipitated [2, 6] | time after which peptide was completely precipitated ([2]; 100 μM in 10 mM sodium phosphate buffer) | concentration at which fibriles form [3] | presence of fibriles by EM [4] | fibrile formation by EM (IAPP) | hormonal activity (AC activation potential) after storage in solution [5]
CC[C@H](C)[C@H](NC(=O)[C@@H]1CCCN1C(=O)CNC(=O)[C@H](Cc1ccccc1)NC(=O)[C@H](CC(N)=O)NC(=O)[C@H](CC(N)=O)NC(=O)[C@H](CO)NC(=O)[C@H](CO)NC(=O)[C@H](Cc1c[nH]cn1)NC(=O)[C@@H](NC(=O)[C@H](CC(C)C)NC(=O)[C@H](Cc1ccccc1)NC(=O)[C@H](CC(N)=O)NC(=O)[C@H](C)NC(=O)[C@H](CC(C)C)NC(=O)[C@H](CCCNC(=N)N)NC(=O)[C@H](CCC(N)=O)NC(=O)[C@@H](NC(=O)[C@H](C)NC(=O)[C@@H]1CSSC[C@H](NC(=O)[C@@H](N)CCCCN)C(=O)N[C@@H](CC(N)=O)C(=O)N[C@@H]([C@@H](C)O)C(=O)N[C@@H](C)C(=O)N[C@@H]([C@@H](C)O)C(=O)N1)[C@@H](C)O)C(C)C)C(=O)N[C@@H](CC(C)C)C(=O)N1CCC[C@H]1C(=O)N1CCC[C@H]1C(=O)N[C@H](C(=O)N[C@@H](CC(N)=O)C(=O)N[C@H](C(=O)NCC(=O)N[C@@H](CO)C(=O)N[C@@H](CC(N)=O)C(=O)N[C@H](C(=O)N[C@@H](Cc1ccc(O)cc1)C(N)=O)[C@@H](C)O)C(C)C)[C@@H](C)O [pramlintide] | above 5 | – | – | – | – | – | – | –
Natural human IAPP (KCNTATCATQRLANFLVHSSNNFGAILSSTNVGSNTY; listed as Homo sapiens) [peptide hormone of 37 amino acids] | – | began immediately after the solution was prepared | 20 h | 2 h | 625 nM | composed primarily of IAPP amyloid fibriles | composed primarily of IAPP amyloid fibriles | may lose more than half of its original hormonal activity
